Measured values as given in paper PMC9084231.

What was measured:
[1] = target: PRP6-HO7 (Proline-rich Protein domain CCP6 heptamerized) (human) (UniProt P04003); experiment: SDS-PAGE under reducing and non-reducing conditions; 4-12% gradient SDS-PAGE of the purified proteins, Coomassie (Blue Safe) staining and Western blot with anti-6xHis and anti-C4BP α-chain antibodies; reduced against non-reduced size
Protein S (Homo sapiens) = Protein S (Homo sapiens) (UniProt P07225); conditions: cited from earlier work
Sequence of UniProt P07225 (P07225 42-676): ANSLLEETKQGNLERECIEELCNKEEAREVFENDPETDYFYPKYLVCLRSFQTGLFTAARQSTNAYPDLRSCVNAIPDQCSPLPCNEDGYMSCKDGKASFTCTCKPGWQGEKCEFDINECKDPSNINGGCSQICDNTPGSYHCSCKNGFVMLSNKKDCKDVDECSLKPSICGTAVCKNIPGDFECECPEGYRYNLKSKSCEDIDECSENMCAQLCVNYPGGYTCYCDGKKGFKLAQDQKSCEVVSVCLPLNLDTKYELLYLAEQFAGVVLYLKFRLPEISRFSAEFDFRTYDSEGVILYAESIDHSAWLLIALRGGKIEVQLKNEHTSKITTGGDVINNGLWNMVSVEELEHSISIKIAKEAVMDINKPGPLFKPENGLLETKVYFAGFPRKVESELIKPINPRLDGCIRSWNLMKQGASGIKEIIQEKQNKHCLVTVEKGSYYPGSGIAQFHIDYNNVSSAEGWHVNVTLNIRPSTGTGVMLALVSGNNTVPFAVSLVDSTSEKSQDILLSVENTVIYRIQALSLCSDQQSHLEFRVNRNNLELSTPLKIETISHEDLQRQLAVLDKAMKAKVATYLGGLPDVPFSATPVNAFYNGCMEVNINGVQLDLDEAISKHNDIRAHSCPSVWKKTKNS

Substance | stoichiometry N [1] | Kd (Protein S (Homo sapiens)) [nM]
PRP6-HO7 (Proline-rich Protein domain CCP6 heptamerized) (from UniProt P04003 540-597) | 7 | 
C4BP beta-chain CCP1 (from UniProt P20851) |  | 0.1
